Experiment [1] addresses T1, p68 S551F (mp68; DDX5 S551F) peptide on H-2Kb (mouse).
T1 peptide: SNFVFAGI
The experiment can be described thus: multimer staining.

The target of experiment [2] is T1, p68 S551F (mp68; DDX5 S551F) peptide on …. Nature of the experiment: cytokine release.

This note sets out measurements from PMC12049912 (2025).

B1: T1-3 (TCR)
alpha TRAV19 TRAJ40 CDR3: CAAGGFNTGNYKYVF
beta TRBV19 TRBJ2-7 CDR3: CASSIRQGSGEQYF
As for B1, the binding result in experiment [1] is given as “no recognition”.

B2: T3-3 (TCR)
alpha TRAV13-4 TRAJ30 CDR3: CAMEHDTNAYKVIF
beta TRBV12-1 TRBJ2-1 CDR3: CASSLRGYAEQFF
Regarding B2, in experiment [1], the binding result is “no recognition”.

B3: T3-3/2 (TCR)
alpha TRAV19 TRAJ40 CDR3: CAAGGVNTGNYKYVF
beta TRBV12-1 TRBJ2-1 CDR3: CASSLRGYAEQFF
Turning to B3, the binding result in experiment [1] is “no recognition”.

B4: 1D9 (TCR)
alpha TRAV1 TRAJ30 CDR3: CAVRSDTNAYKVIF
beta TRBV19 TRBJ2-7 CDR3: CASSKRLSSYEQYF
As for B4, the binding result in experiment [2] was “recognises”.
